Data set [1] has as its target T1, SPO-11 (Caenorhabditis elegans, UniProt Q22236 1-425).
T1 sequence: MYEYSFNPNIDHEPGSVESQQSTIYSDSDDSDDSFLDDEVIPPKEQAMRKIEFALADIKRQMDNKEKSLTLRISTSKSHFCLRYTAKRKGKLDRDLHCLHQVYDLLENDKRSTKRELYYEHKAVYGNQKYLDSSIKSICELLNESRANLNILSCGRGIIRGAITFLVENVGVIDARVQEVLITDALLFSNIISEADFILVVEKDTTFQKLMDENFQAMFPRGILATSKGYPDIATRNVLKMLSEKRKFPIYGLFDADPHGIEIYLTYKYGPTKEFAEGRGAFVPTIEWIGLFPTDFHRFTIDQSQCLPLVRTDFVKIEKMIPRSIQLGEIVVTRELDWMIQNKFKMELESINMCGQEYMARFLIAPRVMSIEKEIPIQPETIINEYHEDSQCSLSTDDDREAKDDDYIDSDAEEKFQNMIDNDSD
In words: EMSA; saturated at 4.8 uM SPO-11; EMSA: 42.5 mM Tris-HCl pH 7.5, 115 mM KCl, 1 mM DTT, 0.1 mg/ml BSA, 3% glycerol, 0.15 mM EDTA, 20 C, 30 min, 300 nM DNA (10 nM plasmid), agarose gel; SPR: same. The settings on record: protein: recombinant; tags: none (His6-SUMO removed by Ulp1); blunt.

Data set [2] addresses T1, SPO-11. Kind of data set: EMSA; 2.4 uM SPO-11, 300 nM DNA; EMSA: 42.5 mM Tris-HCl pH 7.5, 115 mM KCl, 1 mM DTT, 0.1 mg/ml BSA, 3% glycerol, 0.15 mM EDTA, 20 C, 30 min, 300 nM DNA (10 nM plasmid), agarose gel; SPR: same. Particulars: protein: recombinant; tags: none (His6-SUMO removed by Ulp1); label: 3'-Cy5; blunt. A general note: In EMSA bound probe runs differently from free probe, usually more slowly.

Data set [3] deals with T1, SPO-11. In words: SPR; 20 C, steady-state affinity, no Mg2+; EMSA: 42.5 mM Tris-HCl pH 7.5, 115 mM KCl, 1 mM DTT, 0.1 mg/ml BSA, 3% glycerol, 0.15 mM EDTA, 20 C, 30 min, 300 nM DNA (10 nM plasmid), agarose gel; SPR: same. The settings on record: protein: recombinant; tags: none (His6-SUMO removed by Ulp1); label: 5'-biotin; blunt. In general terms: In SPR one partner is held on a chip, and binding of the other changes the refractive index at the surface.

The next data set has as its target T2, SPO-11 G290D (Caenorhabditis elegans, UniProt Q22236 1-425, G290D).
T2 sequence: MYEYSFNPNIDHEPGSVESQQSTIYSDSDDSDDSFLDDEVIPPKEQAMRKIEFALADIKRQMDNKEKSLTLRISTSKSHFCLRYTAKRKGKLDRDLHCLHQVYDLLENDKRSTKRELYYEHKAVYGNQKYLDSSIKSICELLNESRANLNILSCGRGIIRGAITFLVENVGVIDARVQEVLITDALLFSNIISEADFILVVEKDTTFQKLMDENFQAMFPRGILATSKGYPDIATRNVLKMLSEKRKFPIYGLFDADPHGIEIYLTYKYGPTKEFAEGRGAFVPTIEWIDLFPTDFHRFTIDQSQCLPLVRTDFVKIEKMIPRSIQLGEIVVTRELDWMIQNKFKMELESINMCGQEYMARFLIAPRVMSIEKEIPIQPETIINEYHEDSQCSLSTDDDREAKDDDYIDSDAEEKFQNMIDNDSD
Kind of data set: EMSA; 20 C; EMSA: 42.5 mM Tris-HCl pH 7.5, 115 mM KCl, 1 mM DTT, 0.1 mg/ml BSA, 3% glycerol, 0.15 mM EDTA, 20 C, 30 min, 300 nM DNA (10 nM plasmid), agarose gel; SPR: same. The settings on record: protein: recombinant; tags: none (His6-SUMO removed by Ulp1); blunt.

For data set [4], the target named is T1, SPO-11. In words: EMSA; 20 C, no Mg2+; EMSA: 42.5 mM Tris-HCl pH 7.5, 115 mM KCl, 1 mM DTT, 0.1 mg/ml BSA, 3% glycerol, 0.15 mM EDTA, 20 C, 30 min, 300 nM DNA (10 nM plasmid), agarose gel; SPR: same. The settings on record: protein: recombinant; tags: none (His6-SUMO removed by Ulp1); blunt.
The target in another data set is T3, SPO-11 Y119F (Caenorhabditis elegans, UniProt Q22236 1-425, Y119F).
T3 sequence: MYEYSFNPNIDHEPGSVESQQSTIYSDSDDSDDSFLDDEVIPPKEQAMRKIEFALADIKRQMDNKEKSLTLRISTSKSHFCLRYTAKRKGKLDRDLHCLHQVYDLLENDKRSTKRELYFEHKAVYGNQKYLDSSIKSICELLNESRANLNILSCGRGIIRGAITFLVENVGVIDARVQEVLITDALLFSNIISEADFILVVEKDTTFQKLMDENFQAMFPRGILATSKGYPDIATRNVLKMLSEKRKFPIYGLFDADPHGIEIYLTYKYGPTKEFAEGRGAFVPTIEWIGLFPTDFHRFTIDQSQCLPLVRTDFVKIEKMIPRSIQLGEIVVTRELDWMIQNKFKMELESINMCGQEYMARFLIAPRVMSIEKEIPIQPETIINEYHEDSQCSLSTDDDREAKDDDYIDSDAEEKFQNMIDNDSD
In words: EMSA; as proficient as WT; EMSA: 42.5 mM Tris-HCl pH 7.5, 115 mM KCl, 1 mM DTT, 0.1 mg/ml BSA, 3% glycerol, 0.15 mM EDTA, 20 C, 30 min, 300 nM DNA (10 nM plasmid), agarose gel; SPR: same. The settings on record: protein: recombinant; tags: none (His6-SUMO removed by Ulp1); blunt.

A further data set addresses T4, SPO-11 Y118F/Y119F (Caenorhabditis elegans, UniProt Q22236 1-425, Y118F;Y119F).
T4 sequence: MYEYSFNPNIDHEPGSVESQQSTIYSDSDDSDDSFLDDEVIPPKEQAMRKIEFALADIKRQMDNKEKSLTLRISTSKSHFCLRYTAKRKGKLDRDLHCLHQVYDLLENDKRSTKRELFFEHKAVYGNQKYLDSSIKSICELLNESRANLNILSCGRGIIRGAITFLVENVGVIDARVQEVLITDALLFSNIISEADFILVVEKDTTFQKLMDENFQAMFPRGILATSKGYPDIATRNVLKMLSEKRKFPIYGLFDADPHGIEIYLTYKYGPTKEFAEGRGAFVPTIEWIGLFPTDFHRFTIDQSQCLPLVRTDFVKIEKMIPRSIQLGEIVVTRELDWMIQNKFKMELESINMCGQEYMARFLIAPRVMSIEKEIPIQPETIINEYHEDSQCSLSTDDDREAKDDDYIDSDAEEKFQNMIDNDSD
The data set is described as above. Particulars: protein: recombinant; tags: none (His6-SUMO removed by Ulp1); blunt.

The target of another data set is T5, SPO-11 E202A/D255A (Caenorhabditis elegans, UniProt Q22236 1-425, E202A;D255A).
T5 sequence: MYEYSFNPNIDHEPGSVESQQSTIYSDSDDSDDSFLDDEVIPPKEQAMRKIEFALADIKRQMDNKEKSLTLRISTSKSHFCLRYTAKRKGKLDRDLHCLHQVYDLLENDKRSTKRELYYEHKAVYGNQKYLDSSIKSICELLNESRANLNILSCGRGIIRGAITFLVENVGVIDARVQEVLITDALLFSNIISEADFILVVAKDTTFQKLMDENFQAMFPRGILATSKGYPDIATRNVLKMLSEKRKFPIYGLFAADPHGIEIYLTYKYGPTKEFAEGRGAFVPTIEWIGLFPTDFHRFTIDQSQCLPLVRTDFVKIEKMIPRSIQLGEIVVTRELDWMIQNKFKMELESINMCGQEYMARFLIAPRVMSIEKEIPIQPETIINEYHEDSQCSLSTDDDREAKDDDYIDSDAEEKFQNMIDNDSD
In words: EMSA; with Mg2+; as proficient as WT; EMSA: 42.5 mM Tris-HCl pH 7.5, 115 mM KCl, 1 mM DTT, 0.1 mg/ml BSA, 3% glycerol, 0.15 mM EDTA, 20 C, 30 min, 300 nM DNA (10 nM plasmid), agarose gel; SPR: same. The settings on record: protein: recombinant; tags: none (His6-SUMO removed by Ulp1); blunt.

A further data set addresses T6, SPO-11 E202A (Caenorhabditis elegans, UniProt Q22236 1-425, E202A).
T6 sequence: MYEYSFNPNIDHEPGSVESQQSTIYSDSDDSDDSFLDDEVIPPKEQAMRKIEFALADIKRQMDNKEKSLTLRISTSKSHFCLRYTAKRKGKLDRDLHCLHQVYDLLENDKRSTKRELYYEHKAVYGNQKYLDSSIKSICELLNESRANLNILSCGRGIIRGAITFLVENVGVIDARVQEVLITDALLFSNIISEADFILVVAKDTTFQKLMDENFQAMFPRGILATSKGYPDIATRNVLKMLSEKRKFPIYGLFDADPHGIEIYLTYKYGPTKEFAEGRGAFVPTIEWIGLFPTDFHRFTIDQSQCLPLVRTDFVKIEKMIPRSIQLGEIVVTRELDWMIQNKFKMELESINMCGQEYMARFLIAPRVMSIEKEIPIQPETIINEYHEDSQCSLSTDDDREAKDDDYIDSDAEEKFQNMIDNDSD
The description is as above. Particulars: protein: recombinant; tags: none (His6-SUMO removed by Ulp1); blunt.

B1: 80 bp dsDNA (dsDNA)
DNA 1: TTATGTTCATTTTTTATATCCTTTACTTTATTTTCTCTGTTTATTCATTTACTTATTTTGTATTATCCTTATCTTATTTA
DNA 2: TAAATAAGATAAGGATAATACAAAATAAGTAAATGAATAAACAGAGAAAATAAAGTAAAGGATATAAAAAATGAACATAA
For B1, the binding result with SPO-11 [1] is “binds”.

B2: 80 bp dsDNA, Cy5 (dsDNA)
DNA 1: TTATGTTCATTTTTTATATCCTTTACTTTATTTTCTCTGTTTATTCATTTACTTATTTTGTATTATCCTTATCTTATTTA
DNA 2: TAAATAAGATAAGGATAATACAAAATAAGTAAATGAATAAACAGAGAAAATAAAGTAAAGGATATAAAAAATGAACATAA
modifications: 3'-Cy5 on strand 1
On to B2, for which the binding result with SPO-11 [2] was “binds”.

B3: 100 bp dsDNA, 5'-biotin (dsDNA)
DNA 1: AATATGATAGATAATGATAGTGATGAGGGACGTGGATCTCTTCTTACCTGCGGAGACGTCGAGGAGAACCCAGGACCAGGGGTACCTATGGCCTCCTCCG
DNA 2: CGGAGGAGGCCATAGGTACCCCTGGTCCTGGGTTCTCCTCGACGTCTCCGCAGGTAAGAAGAGATCCACGTCCCTCATCACTATCATTATCTATCATATT
modifications: 5'-biotin (strand not stated)
As usually defined, the Kd is the equilibrium constant for the complex coming apart. For the molecule B3, in the data set with SPO-11 [3], the Kd is around 470 nM.

B4: 100 bp dsDNA (dsDNA)
DNA 1: AATATGATAGATAATGATAGTGATGAGGGACGTGGATCTCTTCTTACCTGCGGAGACGTCGAGGAGAACCCAGGACCAGGGGTACCTATGGCCTCCTCCG
DNA 2: CGGAGGAGGCCATAGGTACCCCTGGTCCTGGGTTCTCCTCGACGTCTCCGCAGGTAAGAAGAGATCCACGTCCCTCATCACTATCATTATCTATCATATT
Take B4: the binding result in the data set with SPO-11 G290D is recorded as “no binding”; in the data set with SPO-11 [4], “binds”; in the data set with SPO-11 Y119F, “binds”; with SPO-11 Y118F/Y119F, “binds”; in the data set with SPO-11 E202A/D255A, “binds”; with SPO-11 E202A it was “binds”.
